Source: patent publication US20260049138A1 (Chugai, published 2026)

T1: human CD154 (human, UniProt P29965 113-261, limits assumed, biotin-labeled)
T1 construct: also called biotin-labeled human CD154; biotinylated human CD154
T1 sequence (looked up): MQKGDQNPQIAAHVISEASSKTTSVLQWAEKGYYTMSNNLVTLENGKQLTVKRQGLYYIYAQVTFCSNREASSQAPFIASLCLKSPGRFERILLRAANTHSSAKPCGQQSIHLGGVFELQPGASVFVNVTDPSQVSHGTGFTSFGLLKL


Each binder was assayed against CD3ε homodimer protein (human, UniProt P07766 23-126, limits assumed) (assay: SPR Biacore T200, CD3e homodimer on chip).
Chain of CD3ε homodimer protein (P07766 23-126 limits assumed): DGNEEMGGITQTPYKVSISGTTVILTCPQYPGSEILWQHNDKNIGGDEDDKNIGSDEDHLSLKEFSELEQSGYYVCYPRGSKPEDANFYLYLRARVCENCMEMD
Experimental: An appropriate amount of CD3ε homodimer protein was immobilized onto Sensor chip CM4 (GE Healthcare Japan Corp.) by the amine coupling method. Then, the antibody having an appropriate concentration was injected thereto as an analyte and allowed to interact with the CD3ε homodimer protein on the sensor chip. Then, the sensor chip was regenerated by the injection of 10 mmol/L glycine-HCl (pH 1.5). The assay was conducted at 25° C., and HBS-EP+ (GE Healthcare Japan Corp.) was used as a running buffer. […] Each parameter was calculated using Biacore T200 Evaluation Software (GE Healthcare Japan Corp.).

Row | KD ratio (KD of CE115HA000/KD of altered form) | Binder
1 | 0.88 | CE115HA000 S52cK one-arm antibody (antibody, human IgG1, kappa, L234A L235A, N297A, name in Kabat numbering) heavy: QVQLVESGGGVVQPGRSLRLSCAASGFTFSNAWMHWVRQAPGKGLEWVAQIKAKKNNYATYYAESVKGRFTISRDDSKNSLYLQMNSLKTEDTAVYYCRYVHYGAYYGVDAWGQGTTVTVSSASTKGPSVFPLAPSSKSTSGGTAALGCLVKDYFPEPVTVSWNSGALTSGVHTFPAVLQSSGLYSLSSVVTVPSSSLGTQTYICNVNHKPSNTKVDKKVEPKSCDKTHTCPPCPAPEAAGGPSVFLFPPKPKDTLMISRTPEVTCVVVDVSHEDPEVKFNWYVDGVEVHNAKTKPREEQYASTYRVVSVLTVLHQDWLNGKEYKCKVSNKALPAPIEKTISKAKGQPREPQVYTLPPSRCELTKNQVSLSCAVKGFYPSDIAVEWESNGQPENNYKTTPPVLDSDGSFFLVSKLTVDKSRWQQGNVFSCSVMHEALHNHYTQKSLSLSPDYKDDDDK EPKSSDKTHTCPPCPAPELLGGPSVFLFPPKPKDTLMISRTPEVTCVVVDVSHEDPEVKFNWYVDGVEVHNAKTKPREEQYNSTYRVVSVLTVLHQDWLNGKEYKCKVSNKALPAPIEKTISKAKGQPREPQVCTLPPSRDELTKNQVSLWCLVKGFYPSDIAVEWESNGQPENNYKTTPPVLDSDGSFFLYSKLTVDKSRWQQGNVFSCSVMHEALHNRYTQKSLSLSP light: DIVMTQSPLSLPVTPGEPASISCRSSQSLVHSNRNTYLHWYQQKPGQAPRLLIYKVSNRFSGVPDRFSGSGSGTDFTLKISRVEAEDVGVYYCGQGTQVPYTFGQGTKLEIKRTVAAPSVFIFPPSDEQLKSGTASVVCLLNNFYPREAKVQWKVDNALQSGNSQESVTEQDSKDSTYSLSSTLTLSKADYEKHKVYACEVTHQGLSSPVTKSFNRGEC
2 | 56600 | CE115HA000 W33L one-arm antibody (antibody, human IgG1, kappa, L234A L235A, N297A, name in Kabat numbering) heavy: QVQLVESGGGVVQPGRSLRLSCAASGFTFSNALMHWVRQAPGKGLEWVAQIKAKSNNYATYYAESVKGRFTISRDDSKNSLYLQMNSLKTEDTAVYYCRYVHYGAYYGVDAWGQGTTVTVSSASTKGPSVFPLAPSSKSTSGGTAALGCLVKDYFPEPVTVSWNSGALTSGVHTFPAVLQSSGLYSLSSVVTVPSSSLGTQTYICNVNHKPSNTKVDKKVEPKSCDKTHTCPPCPAPEAAGGPSVFLFPPKPKDTLMISRTPEVTCVVVDVSHEDPEVKFNWYVDGVEVHNAKTKPREEQYASTYRVVSVLTVLHQDWLNGKEYKCKVSNKALPAPIEKTISKAKGQPREPQVYTLPPSRCELTKNQVSLSCAVKGFYPSDIAVEWESNGQPENNYKTTPPVLDSDGSFFLVSKLTVDKSRWQQGNVFSCSVMHEALHNHYTQKSLSLSPDYKDDDDK EPKSSDKTHTCPPCPAPELLGGPSVFLFPPKPKDTLMISRTPEVTCVVVDVSHEDPEVKFNWYVDGVEVHNAKTKPREEQYNSTYRVVSVLTVLHQDWLNGKEYKCKVSNKALPAPIEKTISKAKGQPREPQVCTLPPSRDELTKNQVSLWCLVKGFYPSDIAVEWESNGQPENNYKTTPPVLDSDGSFFLYSKLTVDKSRWQQGNVFSCSVMHEALHNRYTQKSLSLSP light: DIVMTQSPLSLPVTPGEPASISCRSSQSLVHSNRNTYLHWYQQKPGQAPRLLIYKVSNRFSGVPDRFSGSGSGTDFTLKISRVEAEDVGVYYCGQGTQVPYTFGQGTKLEIKRTVAAPSVFIFPPSDEQLKSGTASVVCLLNNFYPREAKVQWKVDNALQSGNSQESVTEQDSKDSTYSLSSTLTLSKADYEKHKVYACEVTHQGLSSPVTKSFNRGEC

What follows are binders tested against T1, human CD154 (assay: ECL competition, CD3ε[+]: CD3ε homodimer added as competitor [2]).
Experimental: Next, each obtained IgG was evaluated for its binding to CD3 and human CD154 at the same time by the competition method (electrochemiluminescence method (ECL method)).
A TBST solution containing 0.5% BSA (referred to as a blocking solution; the TBST solution was TBS (manufactured by Takara Bio Inc.) supplemented with 0.1% Tween 20) was added at 150 μL/well to streptavidin plate (MSD K.K.), and the plate was incubated at room temperature for 1 hour or longer. After removal of the blocking solution, each well was washed three times with 250 μL of a TBST solution. The antibody-antigen complex solution was added thereto at 50 μL/well, and the plate was incubated at room temperature for 1 hour so that the biotinylated antigen-antibody-detection sulfo-tag antibody complex solution bound via the biotinylated antigen to the streptavidin plate. After removal of the antibody-antigen complex solution, each well was washed three times with a TBST solution, and a solution of 4×READ buffer (MSD K.K.) diluted 2-fold with water was added thereto at 150 μL/well, followed by the detection of the luminescence signal of the sulfo-tag using Sector Imager 2400 (MSD K.K.).

Row | relative ECL reaction (to no antigen coating) | Binder
3 | 10 | 154R5A02#1 one-arm antibody (antibody, human IgG1, kappa, L234A L235A, N297A, As m48) heavy: QVQLVESGGGLVQPGRSLRLSCAASGFTFSNAWMHWVRQAPGKGLEWVAQIKDRGNNYNTYYAPSVKGRFTISRDDSKNSIYLQMNSLKTEDTAVYYCRYVHYGSYFFSGSSFGVDIWGQGTTVTVSSASTKGPSVFPLAPSSKSTSGGTAALGCLVKDYFPEPVTVSWNSGALTSGVHTFPAVLQSSGLYSLSSVVTVPSSSLGTQTYICNVNHKPSNTKVDKKVEPKSCDKTHTCPPCPAPEAAGGPSVFLFPPKPKDTLMISRTPEVTCVVVDVSHEDPEVKFNWYVDGVEVHNAKTKPREEQYASTYRVVSVLTVLHQDWLNGKEYKCKVSNKALPAPIEKTISKAKGQPREPQVYTLPPSRCELTKNQVSLSCAVKGFYPSDIAVEWESNGQPENNYKTTPPVLDSDGSFFLVSKLTVDKSRWQQGNVFSCSVMHEALHNHYTQKSLSLSPDYKDDDDK EPKSSDKTHTCPPCPAPELLGGPSVFLFPPKPKDTLMISRTPEVTCVVVDVSHEDPEVKFNWYVDGVEVHNAKTKPREEQYNSTYRVVSVLTVLHQDWLNGKEYKCKVSNKALPAPIEKTISKAKGQPREPQVCTLPPSRDELTKNQVSLWCLVKGFYPSDIAVEWESNGQPENNYKTTPPVLDSDGSFFLYSKLTVDKSRWQQGNVFSCSVMHEALHNRYTQKSLSLSP light: DIVMTQSPLSLPVTPGEPASISCRSSQSLVHSNRNTYLHWYQQKPGQAPRLLIYKVSNRFSGVPDRFSGSGSGTDFTLKISRVEAEDVGVYYCGQGTQVPYTFGQGTKLEIKRTVAAPSVFIFPPSDEQLKSGTASVVCLLNNFYPREAKVQWKVDNALQSGNSQESVTEQDSKDSTYSLSSTLTLSKADYEKHKVYACEVTHQGLSSPVTKSFNRGEC
4 | 106 | 154R5A02#2 one-arm antibody (antibody, human IgG1, kappa, L234A L235A, N297A, As m48) heavy: QVQLVESGGGLVQPGRSLRLSCAASGFTFSNAWMHWVRQAPGKGLEWVAQIKDRGNNYNTYYAPSVKGRFTISRDDSKNSIYLQMNSLKTEDTAVYYCRYAHYGSYFFSGSSFGVDIWGQGTTVTVSSASTKGPSVFPLAPSSKSTSGGTAALGCLVKDYFPEPVTVSWNSGALTSGVHTFPAVLQSSGLYSLSSVVTVPSSSLGTQTYICNVNHKPSNTKVDKKVEPKSCDKTHTCPPCPAPEAAGGPSVFLFPPKPKDTLMISRTPEVTCVVVDVSHEDPEVKFNWYVDGVEVHNAKTKPREEQYASTYRVVSVLTVLHQDWLNGKEYKCKVSNKALPAPIEKTISKAKGQPREPQVYTLPPSRCELTKNQVSLSCAVKGFYPSDIAVEWESNGQPENNYKTTPPVLDSDGSFFLVSKLTVDKSRWQQGNVFSCSVMHEALHNHYTQKSLSLSPDYKDDDDK EPKSSDKTHTCPPCPAPELLGGPSVFLFPPKPKDTLMISRTPEVTCVVVDVSHEDPEVKFNWYVDGVEVHNAKTKPREEQYNSTYRVVSVLTVLHQDWLNGKEYKCKVSNKALPAPIEKTISKAKGQPREPQVCTLPPSRDELTKNQVSLWCLVKGFYPSDIAVEWESNGQPENNYKTTPPVLDSDGSFFLYSKLTVDKSRWQQGNVFSCSVMHEALHNRYTQKSLSLSP light: DIVMTQSPLSLPVTPGEPASISCRSSQSLVHSNRNTYLHWYQQKPGQAPRLLIYKVSNRFSGVPDRFSGSGSGTDFTLKISRVEAEDVGVYYCGQGTQVPYTFGQGTKLEIKRTVAAPSVFIFPPSDEQLKSGTASVVCLLNNFYPREAKVQWKVDNALQSGNSQESVTEQDSKDSTYSLSSTLTLSKADYEKHKVYACEVTHQGLSSPVTKSFNRGEC
5 | 1 | 154R5E11#3 one-arm antibody (antibody, human IgG1, kappa, L234A L235A, N297A, As m48) heavy: QVQLVESGGGLVQPGRSLRLSCAASGFTFSNAWMHWVRQAPGKGLEWVAQIKDRGNNYAAYYAESVKGRFTISRDDSKNSIYLQMNSLKTEDTAVYYCRYVHYGSYFFASFYFGVDIWGQGTAVTVSSASTKGPSVFPLAPSSKSTSGGTAALGCLVKDYFPEPVTVSWNSGALTSGVHTFPAVLQSSGLYSLSSVVTVPSSSLGTQTYICNVNHKPSNTKVDKKVEPKSCDKTHTCPPCPAPEAAGGPSVFLFPPKPKDTLMISRTPEVTCVVVDVSHEDPEVKFNWYVDGVEVHNAKTKPREEQYASTYRVVSVLTVLHQDWLNGKEYKCKVSNKALPAPIEKTISKAKGQPREPQVYTLPPSRCELTKNQVSLSCAVKGFYPSDIAVEWESNGQPENNYKTTPPVLDSDGSFFLVSKLTVDKSRWQQGNVFSCSVMHEALHNHYTQKSLSLSPDYKDDDDK EPKSSDKTHTCPPCPAPELLGGPSVFLFPPKPKDTLMISRTPEVTCVVVDVSHEDPEVKFNWYVDGVEVHNAKTKPREEQYNSTYRVVSVLTVLHQDWLNGKEYKCKVSNKALPAPIEKTISKAKGQPREPQVCTLPPSRDELTKNQVSLWCLVKGFYPSDIAVEWESNGQPENNYKTTPPVLDSDGSFFLYSKLTVDKSRWQQGNVFSCSVMHEALHNRYTQKSLSLSP light: DIVMTQSPLSLPVTPGEPASISCRSSQSLVHSNRNTYLHWYQQKPGQAPRLLIYKVSNRFSGVPDRFSGSGSGTDFTLKISRVEAEDVGVYYCGQGTQVPYTFGQGTKLEIKRTVAAPSVFIFPPSDEQLKSGTASVVCLLNNFYPREAKVQWKVDNALQSGNSQESVTEQDSKDSTYSLSSTLTLSKADYEKHKVYACEVTHQGLSSPVTKSFNRGEC
6 | 13 | 154R5F08#1 one-arm antibody (antibody, human IgG1, kappa, L234A L235A, N297A, As m48) heavy: QVQLVESGGGLVQPGRSLRLSCAASGFTFSNAWMHWVRQAPGKGLEWVAQIKDKGNQYATYYAESVKGRFTISRDDSKNSIYLQMNSLKTEDTAVYYCRYVHYGTYFFALPAFGVDIWGQGTTVTVSSASTKGPSVFPLAPSSKSTSGGTAALGCLVKDYFPEPVTVSWNSGALTSGVHTFPAVLQSSGLYSLSSVVTVPSSSLGTQTYICNVNHKPSNTKVDKKVEPKSCDKTHTCPPCPAPEAAGGPSVFLFPPKPKDTLMISRTPEVTCVVVDVSHEDPEVKFNWYVDGVEVHNAKTKPREEQYASTYRVVSVLTVLHQDWLNGKEYKCKVSNKALPAPIEKTISKAKGQPREPQVYTLPPSRCELTKNQVSLSCAVKGFYPSDIAVEWESNGQPENNYKTTPPVLDSDGSFFLVSKLTVDKSRWQQGNVFSCSVMHEALHNHYTQKSLSLSPDYKDDDDK EPKSSDKTHTCPPCPAPELLGGPSVFLFPPKPKDTLMISRTPEVTCVVVDVSHEDPEVKFNWYVDGVEVHNAKTKPREEQYNSTYRVVSVLTVLHQDWLNGKEYKCKVSNKALPAPIEKTISKAKGQPREPQVCTLPPSRDELTKNQVSLWCLVKGFYPSDIAVEWESNGQPENNYKTTPPVLDSDGSFFLYSKLTVDKSRWQQGNVFSCSVMHEALHNRYTQKSLSLSP light: DIVMTQSPLSLPVTPGEPASISCRSSQSLVHSNRNTYLHWYQQKPGQAPRLLIYKVSNRFSGVPDRFSGSGSGTDFTLKISRVEAEDVGVYYCGQGTQVPYTFGQGTKLEIKRTVAAPSVFIFPPSDEQLKSGTASVVCLLNNFYPREAKVQWKVDNALQSGNSQESVTEQDSKDSTYSLSSTLTLSKADYEKHKVYACEVTHQGLSSPVTKSFNRGEC
